{
  "source": "patent EP2536430B1",
  "molecular_target": "interleukin 3 receptor α (IL-3Rα) chain on human pDCs and basophils (human) (UniProt P26951)",
  "sequence (P26951 20-378)": "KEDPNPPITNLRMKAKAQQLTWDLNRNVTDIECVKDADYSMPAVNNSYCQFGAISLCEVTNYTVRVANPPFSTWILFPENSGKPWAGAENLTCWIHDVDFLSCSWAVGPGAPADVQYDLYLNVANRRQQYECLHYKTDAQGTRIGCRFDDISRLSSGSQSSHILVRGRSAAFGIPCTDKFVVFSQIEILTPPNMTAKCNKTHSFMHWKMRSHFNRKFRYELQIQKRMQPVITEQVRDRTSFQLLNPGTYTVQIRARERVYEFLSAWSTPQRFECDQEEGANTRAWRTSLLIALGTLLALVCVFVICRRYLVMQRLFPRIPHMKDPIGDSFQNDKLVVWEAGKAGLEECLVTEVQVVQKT",
  "assay": "cell-based or functional assay",
  "data": [
    {"substance": "ch7G3 (chimeric version of 7G3 with a human IgG1 constant domain) (antibody)", "values": [
      {"measurement": "pDCs (% of total cells remaining in culture), 4h, 10 µg/ml antibody on human PBMC (% of total cells remaining in culture)", "value": 0.1},
      {"measurement": "pDCs (% of total cells remaining in culture), 24h, 10 µg/ml antibody on human PBMC (% of total cells remaining in culture)", "value": 0.02},
      {"measurement": "pDCs (% of total cells remaining in culture), 48h, 10 µg/ml antibody on human PBMC (% of total cells remaining in culture)", "value": 0.005}
    ]}
  ]
}
